In the assay the target is T1, human folate receptor β (human, UniProt P14207 17-230).
T1 construct: whole, on cells; also called FRβ; FR-β
The assay is described as follows: flow cytometry on human FRβ-expressing B300-19 cells. For orientation: In flow cytometry, cells or beads pass a laser one at a time.

T1 sequence (P14207 17-230): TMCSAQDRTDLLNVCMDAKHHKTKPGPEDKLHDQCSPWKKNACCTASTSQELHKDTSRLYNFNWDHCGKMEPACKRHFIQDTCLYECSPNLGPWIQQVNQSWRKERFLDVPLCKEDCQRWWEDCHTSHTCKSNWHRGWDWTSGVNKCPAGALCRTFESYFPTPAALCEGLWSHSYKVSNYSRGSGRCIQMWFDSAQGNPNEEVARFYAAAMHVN
Description: The cells were further reacted with an anti-rat antibody labeled with APC. After the end of reaction, stainability was determined using a flow cytometer.

B1: anti-human FRα/β rat monoclonal antibody (clone name: No. 5) (antibody, V domains shown)
VH: QVQLKESGPGLVQPSQTLSLTCTVSGFSLTSNSVSWVRQPPGKGLEWMGAIWSGGSTDYNSALKSRLSISKDTSKSQVFLKMNSLQTEDTAIYFCTRYYGYTYFAYWGQGVMVTVSS
VL: DIQMTQSPASLSASLEEIVTITCQASQDIGNWLAWYQQKPGKSPQLLIYDAIRLADGVPSRFSGSRSGTQYSLKISRLQVEDIGDYYCQQGQSNPRTFGGGTKLELK
notes: also called antibody No. 5; anti-human FRα/β antibody
For the molecule B1, the binding result is recorded as “binds”.

(Values after US20150343088A1 (KAGOSHIMA UNIVERSITY, published 2015).)
